Data set [1] deals with Factor X analogue with the FXIa cleavage site Asp-Phe-Thr-Arg/Val (rFX^DFTR/V).
For data set [2], the system named is recombinant Factor X (rFX) from highly expressing CHO-rFX clones.
The test system of data set [3] is rFactor X from furin deficient CHO-FD11 cells (CHO-FD11-rFX).

3 substances from patent US7220569 can be followed below.

recombinant Factor X (rFX) from highly expressing CHO-rFX clones, sequence (chain, as listed by the source): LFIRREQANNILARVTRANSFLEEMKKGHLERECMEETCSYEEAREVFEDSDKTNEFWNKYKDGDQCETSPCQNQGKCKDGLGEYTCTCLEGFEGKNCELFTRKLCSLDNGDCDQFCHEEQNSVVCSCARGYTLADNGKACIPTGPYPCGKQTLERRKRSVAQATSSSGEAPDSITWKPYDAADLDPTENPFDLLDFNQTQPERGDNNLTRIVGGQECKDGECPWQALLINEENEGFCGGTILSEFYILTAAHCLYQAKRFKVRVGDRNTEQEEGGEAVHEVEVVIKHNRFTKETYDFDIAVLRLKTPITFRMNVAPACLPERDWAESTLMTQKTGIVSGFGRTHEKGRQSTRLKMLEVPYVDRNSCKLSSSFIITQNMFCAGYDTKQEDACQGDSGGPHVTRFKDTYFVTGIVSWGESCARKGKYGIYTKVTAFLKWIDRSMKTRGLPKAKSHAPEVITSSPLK
rFactor X from furin deficient CHO-FD11 cells (CHO-FD11-rFX), sequence (chain, as listed by the source): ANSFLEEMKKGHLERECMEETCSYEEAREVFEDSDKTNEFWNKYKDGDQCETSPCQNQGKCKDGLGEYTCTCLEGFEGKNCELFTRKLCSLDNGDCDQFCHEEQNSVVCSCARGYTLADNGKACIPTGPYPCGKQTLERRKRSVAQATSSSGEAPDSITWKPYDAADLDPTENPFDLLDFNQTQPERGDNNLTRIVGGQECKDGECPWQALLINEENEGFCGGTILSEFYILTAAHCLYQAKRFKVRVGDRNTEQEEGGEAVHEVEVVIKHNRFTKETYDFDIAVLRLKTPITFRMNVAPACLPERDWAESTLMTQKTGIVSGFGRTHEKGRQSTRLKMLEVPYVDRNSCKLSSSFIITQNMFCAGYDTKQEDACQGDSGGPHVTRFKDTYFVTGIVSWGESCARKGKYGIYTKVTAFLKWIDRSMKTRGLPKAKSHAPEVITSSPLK
Factor X analogue with the FXIa cleavage site Asp-Phe-Thr-Arg/Val (rFX^DFTR/V), sequence (chain, as listed by the source, chain 1 of 2): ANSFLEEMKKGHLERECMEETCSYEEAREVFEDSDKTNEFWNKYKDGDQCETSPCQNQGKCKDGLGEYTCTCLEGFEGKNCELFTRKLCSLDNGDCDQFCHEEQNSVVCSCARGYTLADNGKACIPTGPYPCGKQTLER
Factor X analogue with the FXIa cleavage site Asp-Phe-Thr-Arg/Val (rFX^DFTR/V), sequence (chain, as listed by the source, chain 2 of 2): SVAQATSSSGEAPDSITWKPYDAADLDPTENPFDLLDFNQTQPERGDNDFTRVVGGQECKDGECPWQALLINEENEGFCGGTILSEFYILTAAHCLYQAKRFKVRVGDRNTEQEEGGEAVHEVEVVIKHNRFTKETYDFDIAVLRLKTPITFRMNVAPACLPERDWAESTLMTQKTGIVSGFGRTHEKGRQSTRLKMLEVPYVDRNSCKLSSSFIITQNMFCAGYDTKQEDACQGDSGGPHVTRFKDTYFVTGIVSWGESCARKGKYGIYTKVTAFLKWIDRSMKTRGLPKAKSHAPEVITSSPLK

As for purified plasma FXIa, in data set [1], the “activation of rFX^DFTR/V to the 35 kD and 31 kD forms (Western blot)” value was “protein bands of 35 kD and 31 kD rapidly appear after the addition of purified FXIa, but prior to the actual incubation of the cell sulture supernatant (FIG. 11, lane 3)”.

Turning to endogenous furin of CHO cells, the “processing of rFactor X precursor in furin containing versus furin deficient CHO clones (Western blot)” value in data set [2] is “rFactor X precursor is not processed in the furin deficient cells and only single chain Factor X precursor is present (FIG. 6); in contrast, rFactor X is completely processed by "normal" cells at modest expression”.

For “rfurin deltaTM6xHis (CHO-rfurin cell culture supernatant)”, in data set [2], the “N-termini of processing products after 12 hours at 37 C with CHO-rfurin supernatant (Edman analysis)” value is “After incubation of rFX from CHO cells (c) and CHO-FD11 cells (e) in the presence of furin, only light and heavy chains having correct N-termini are found”; the activity (mU), FX Coatest after RVV activation, incubation 0 days was 853 mU; the activity (mU), FX Coatest after RVV activation, incubation 1 day was found to be 1020 mU; the activity (mU), FX Coatest after RVV activation, incubation 2 days came out at 1100 mU. Moreover, in data set [2], the activity (mU), FX Coatest after RVV activation, incubation 3 days was 1140 mU; the activity (mU), FX Coatest after RVV activation, incubation 4 days was 1200 mU; the functional portion of rFX (%), incubation 0 days was 61%; the functional portion of rFX (%), incubation 1 day amounted to 73%. Besides, in data set [2], the functional portion of rFX (%), incubation 2 days came out at 79%; the functional portion of rFX (%), incubation 3 days amounted to 81%; the functional portion of rFX (%), incubation 4 days is 86%; the “processing of pro-Factor X on tentacle gel immobilized rfurin derivative (Western blot of the effluent)” value was “Processing of pro-Factor X to double chain Factor X was detected in the effluent of the column”. The “processing of single chain and propeptide containing rFX (Western blot)” value in data set [2] is “almost complete processing already after 2 hours of incubation at 37 °C”. For the same substance, in data set [3], the “N-termini of processing products after 12 hours at 37 C with CHO-rfurin supernatant (Edman analysis)” value is “After incubation of rFX from CHO cells (c) and CHO-FD11 cells (e) in the presence of furin, only light and heavy chains having correct N-termini are found”.
